# Assay results from US20120316071A1 (published 2012).
# Experiments:
# [1] = biological target: T1, Recombinant Human DLL4 (R&D Systems Cat#1506-D4/CF) (human, UniProt Q9NR61 27-529); experiment: 96-well plate ECL (MSD) assay, DLL4 coated on plate, Fab at 0.04 µM; ECL signal on DLL4 over signal on blank well
# T1 construct: Bought recombinant protein; also called rHuman DLL4; delta-like protein 4
# [2] = biological target: T1, Recombinant Human DLL4 (R&D Systems …); experiment: surface plasmon resonance, Fab against recombinant human DLL4; standard deviation in parentheses
# [3] = biological target: T2, Recombinant Human DLL4 (delta-like protein 4) (human, UniProt Q9NR61 27-524); experiment: ELISA on plate-coated DLL4, absorbance at 450 nm, signal minus noise
# T2 construct: Bought recombinant protein (R&D Systems Cat#1506-D4/CF); also called rHuman DLL4; Delta-like 4
# [4] = biological target: T2, Recombinant Human DLL4 (delta-like …); experiment: ECL (MSD) multispot binding assay, immobilized DLL4, 10 nM Fab, signal over blank
# [5] = biological target: T3, Recombinant Human DLL4 (R&D Systems Cat#1506-D4/CF) (human, UniProt Q9NR61 27-524); experiment: ELISA, DLL4 coated on plate, Fab at 2.22 nM
# T3 construct: Bought recombinant protein; also called delta-like protein 4; Delta-like 4
# [6] = biological target: T3, Recombinant Human DLL4 (R&D Systems …); experiment: ELISA, DLL4 coated on plate, Fab at 6.67 nM
# [7] = biological target: T3, Recombinant Human DLL4 (R&D Systems …); experiment: ELISA, DLL4 coated on plate, Fab at 0.74 nM
# [8] = biological target: T3, Recombinant Human DLL4 (R&D Systems …); experiment: ELISA, DLL4 coated on plate, Fab at 20 nM
Binder,Signal/Noise [1],ELISA (Signal-Noise) [3],Signal/Blank [10 nM Fab] [4],other results
"Fab VH1-46_IGHD6-6*01_IGHJ1*01 & L6_IGKJ1*01 (Fab, V domains shown, Germline Fab made in E. coli: VH in Plasmid A (CH1, His6 and Flag tags), kappa VL in Plasmid C (kappa CL); also called parental; wildtype) VH: QVQLVQSGAEVKKPGASVKVSCKASGYTFTSYYMHWVRQAPGQGLEWMGIINPSGGSTSYAQKFQGRVTMTRDTSTSTVYMELSSLRSEDTAVYYCAREEYSSSSAEYFQHWGQGTLVTVSS VL: not shown",3.1,,,Kd [2]: 730 nM; koff [2]: 0.101 s⁻¹; kon [2]: 163000 M⁻¹ s⁻¹
"Fab VH1-46_IGHD6-6*01_IGHJ1*01 S102A/S103P/S104F/H111F S84G & L6_IGKJ1*01 (Fab, V domains shown, Tested as Fab expressed in E. coli; also called APFF S84G) VH: QVQLVQSGAEVKKPGASVKVSCKASGYTFTSYYMHWVRQAPGQGLEWMGIINPSGGSTSYAQKFQGRVTMTRDTSTSTVYMELGSLRSEDTAVYYCAREEYAPFSAEYFQFWGQGTLVTVSS VL: not shown",,0.53,346,
"Fab VH1-46_IGHD6-6*01_IGHJ1*01 H111A & L6_IGKJ1*01 (Fab, V domains shown, Heavy chain CDR3 alanine mutant of the parental Fab; Fab format as the parent (CH1 with His6/Flag tags, kappa CL)) VH: QVQLVQSGAEVKKPGASVKVSCKASGYTFTSYYMHWVRQAPGQGLEWMGIINPSGGSTSYAQKFQGRVTMTRDTSTSTVYMELSSLRSEDTAVYYCAREEYSSSSAEYFQAWGQGTLVTVSS VL: not shown",2.4,,,
"Fab VH1-46_IGHD6-6*01_IGHJ1*01 S105A & L6_IGKJ1*01 (Fab, V domains shown, Heavy chain CDR3 alanine mutant of the parental Fab; Fab format as the parent (CH1 with His6/Flag tags, kappa CL)) VH: QVQLVQSGAEVKKPGASVKVSCKASGYTFTSYYMHWVRQAPGQGLEWMGIINPSGGSTSYAQKFQGRVTMTRDTSTSTVYMELSSLRSEDTAVYYCAREEYSSSAAEYFQHWGQGTLVTVSS VL: not shown",0.8,,,
"Fab VH1-46_IGHD6-6*01_IGHJ1*01 S104A & L6_IGKJ1*01 (Fab, V domains shown, Heavy chain CDR3 alanine mutant of the parental Fab; Fab format as the parent (CH1 with His6/Flag tags, kappa CL)) VH: QVQLVQSGAEVKKPGASVKVSCKASGYTFTSYYMHWVRQAPGQGLEWMGIINPSGGSTSYAQKFQGRVTMTRDTSTSTVYMELSSLRSEDTAVYYCAREEYSSASAEYFQHWGQGTLVTVSS VL: not shown",1.3,,,
"Fab VH1-46_IGHD6-6*01_IGHJ1*01 S102A/S103P/S104F/H111F S84K & L6_IGKJ1*01 (Fab, V domains shown, Tested as Fab expressed in E. coli; also called APFF S84K) VH: QVQLVQSGAEVKKPGASVKVSCKASGYTFTSYYMHWVRQAPGQGLEWMGIINPSGGSTSYAQKFQGRVTMTRDTSTSTVYMELKSLRSEDTAVYYCAREEYAPFSAEYFQFWGQGTLVTVSS VL: not shown",,0.29,448,
"Fab VH1-46_IGHD6-6*01_IGHJ1*01 S102A/S103P/S104F/H111F S84H & L6_IGKJ1*01 (Fab, V domains shown, Tested as Fab expressed in E. coli; also called APFF S84H) VH: QVQLVQSGAEVKKPGASVKVSCKASGYTFTSYYMHWVRQAPGQGLEWMGIINPSGGSTSYAQKFQGRVTMTRDTSTSTVYMELHSLRSEDTAVYYCAREEYAPFSAEYFQFWGQGTLVTVSS VL: not shown",,0.41,457,
"Fab VH1-46_IGHD6-6*01_IGHJ1*01 S102A/S103P/S104F/H111F S84Q & L6_IGKJ1*01 (Fab, V domains shown, Tested as Fab expressed in E. coli; also called APFF S84Q) VH: QVQLVQSGAEVKKPGASVKVSCKASGYTFTSYYMHWVRQAPGQGLEWMGIINPSGGSTSYAQKFQGRVTMTRDTSTSTVYMELQSLRSEDTAVYYCAREEYAPFSAEYFQFWGQGTLVTVSS VL: not shown",,0.39,413,
"Fab VH1-46_IGHD6-6*01_IGHJ1*01 S103A & L6_IGKJ1*01 (Fab, V domains shown, Heavy chain CDR3 alanine mutant of the parental Fab; Fab format as the parent (CH1 with His6/Flag tags, kappa CL)) VH: QVQLVQSGAEVKKPGASVKVSCKASGYTFTSYYMHWVRQAPGQGLEWMGIINPSGGSTSYAQKFQGRVTMTRDTSTSTVYMELSSLRSEDTAVYYCAREEYSASSAEYFQHWGQGTLVTVSS VL: not shown",3.5,,,
"Fab VH1-46_IGHD6-6*01_IGHJ1*01 E100A & L6_IGKJ1*01 (Fab, V domains shown, Heavy chain CDR3 alanine mutant of the parental Fab; Fab format as the parent (CH1 with His6/Flag tags, kappa CL)) VH: QVQLVQSGAEVKKPGASVKVSCKASGYTFTSYYMHWVRQAPGQGLEWMGIINPSGGSTSYAQKFQGRVTMTRDTSTSTVYMELSSLRSEDTAVYYCAREAYSSSSAEYFQHWGQGTLVTVSS VL: not shown",0.9,,,
"Fab VH1-46_IGHD6-6*01_IGHJ1*01 S102A & L6_IGKJ1*01 (Fab, V domains shown, Heavy chain CDR3 alanine mutant of the parental Fab; Fab format as the parent (CH1 with His6/Flag tags, kappa CL)) VH: QVQLVQSGAEVKKPGASVKVSCKASGYTFTSYYMHWVRQAPGQGLEWMGIINPSGGSTSYAQKFQGRVTMTRDTSTSTVYMELSSLRSEDTAVYYCAREEYASSSAEYFQHWGQGTLVTVSS VL: not shown",5.6,,,
"Fab VH1-46_IGHD6-6*01_IGHJ1*01 S102A/S103P/S104F/H111F S84T & L6_IGKJ1*01 (Fab, V domains shown, Tested as Fab expressed in E. coli; also called APFF S84T) VH: QVQLVQSGAEVKKPGASVKVSCKASGYTFTSYYMHWVRQAPGQGLEWMGIINPSGGSTSYAQKFQGRVTMTRDTSTSTVYMELTSLRSEDTAVYYCAREEYAPFSAEYFQFWGQGTLVTVSS VL: not shown",,0.4,1080,
"Fab VH1-46_IGHD6-6*01_IGHJ1*01 S102A/S103P/S104F/H111F S84R & L6_IGKJ1*01 (Fab, V domains shown, Tested as Fab expressed in E. coli; also called APFF S84R) VH: QVQLVQSGAEVKKPGASVKVSCKASGYTFTSYYMHWVRQAPGQGLEWMGIINPSGGSTSYAQKFQGRVTMTRDTSTSTVYMELRSLRSEDTAVYYCAREEYAPFSAEYFQFWGQGTLVTVSS VL: not shown",,0.26,433,
"Fab VH1-46_IGHD6-6*01_IGHJ1*01 S102A/S103P/S104F/H111F S84N & L6_IGKJ1*01 (Fab, V domains shown, Tested as Fab expressed in E. coli; also called APFF S84N) VH: QVQLVQSGAEVKKPGASVKVSCKASGYTFTSYYMHWVRQAPGQGLEWMGIINPSGGSTSYAQKFQGRVTMTRDTSTSTVYMELNSLRSEDTAVYYCAREEYAPFSAEYFQFWGQGTLVTVSS VL: not shown",,0.47,497,
"Fab VH5-51_IGHD5-18*01>3_IGHJ4*01 G100K/G104T (H:KT) & V3-4_IGLJ1*01 M94R/S96M (L:RM) (Fab, V domains shown, Fab expressed in E. coli; Plasmid A adds CH1 with His6 and Flag tags to the heavy chain; Plasmid E adds lambda CL to the light chain; also called H:KT & L:RM; G100K/G104T & M94R/S96M) VH: EVQLVQSGAEVKKPGESLKISCKGSGYSFTSYWIGWVRQMPGKGLEWMGIIYPGDSDTRYSPSFQGQVTISADKSISTAYLQWSSLKASDTAMYYCARRKYSYTYDYFDYWGQGTLVTVSS VL: QTVVTQEPSFSVSPGGTVTLTCGLSSGSVSTSYYPSWYQQTPGQAPRTLIYSTNTRSSGVPDRFSGSILGNKAALTITGAQADDESDYYCVLYRGMGISYVFGTGTKVTVL",,,,ELISA signal [5]: 0.007; ELISA signal [6]: 0.023; ELISA signal [7]: 0; ELISA signal [8]: 0.087
"Fab VH5-51_IGHD5-18*01>3_IGHJ4*01 G100K/G104T G24L/S28R/G35V (H:KT LRV) & V3-4_IGLJ1*01 (Fab, V domains shown, Fab expressed in E. coli; Plasmid A adds CH1 with His6 and Flag tags to the heavy chain; Plasmid E adds lambda CL to the light chain; also called H:KT LRV & L:wt; G100K/G104T G24L/S28R/G35V & parent) VH: EVQLVQSGAEVKKPGESLKISCKLSGYRFTSYWIVWVRQMPGKGLEWMGIIYPGDSDTRYSPSFQGQVTISADKSISTAYLQWSSLKASDTAMYYCARRKYSYTYDYFDYWGQGTLVTVSS VL: QTVVTQEPSFSVSPGGTVTLTCGLSSGSVSTSYYPSWYQQTPGQAPRTLIYSTNTRSSGVPDRFSGSILGNKAALTITGAQADDESDYYCVLYMGSGISYVFGTGTKVTVL",,,,ELISA signal [5]: 0; ELISA signal [6]: 0.005; ELISA signal [7]: 0.006; ELISA signal [8]: 0.027
"Fab VH5-51_IGHD5-18*01>3_IGHJ4*01 G100K/G104T G24T/S28R/G35V (H:KT TRV) & V3-4_IGLJ1*01 (Fab, V domains shown, Fab expressed in E. coli; Plasmid A adds CH1 with His6 and Flag tags to the heavy chain; Plasmid E adds lambda CL to the light chain; also called H:KT TRV & L:wt; G100K/G104T G24T/S28R/G35V & parent) VH: EVQLVQSGAEVKKPGESLKISCKTSGYRFTSYWIVWVRQMPGKGLEWMGIIYPGDSDTRYSPSFQGQVTISADKSISTAYLQWSSLKASDTAMYYCARRKYSYTYDYFDYWGQGTLVTVSS VL: QTVVTQEPSFSVSPGGTVTLTCGLSSGSVSTSYYPSWYQQTPGQAPRTLIYSTNTRSSGVPDRFSGSILGNKAALTITGAQADDESDYYCVLYMGSGISYVFGTGTKVTVL",,,,ELISA signal [5]: 0; ELISA signal [6]: 0.023; ELISA signal [7]: 0.002; ELISA signal [8]: 0.054
"Fab VH5-51_IGHD5-18*01>3_IGHJ4*01 G100K/G104T G24A/S28R/G35V (H:KT ARV) & V3-4_IGLJ1*01 (Fab, V domains shown, Fab expressed in E. coli; Plasmid A adds CH1 with His6 and Flag tags to the heavy chain; Plasmid E adds lambda CL to the light chain; also called H:KT ARV & L:wt; G100K/G104T G24A/S28R/G35V & parent) VH: EVQLVQSGAEVKKPGESLKISCKASGYRFTSYWIVWVRQMPGKGLEWMGIIYPGDSDTRYSPSFQGQVTISADKSISTAYLQWSSLKASDTAMYYCARRKYSYTYDYFDYWGQGTLVTVSS VL: QTVVTQEPSFSVSPGGTVTLTCGLSSGSVSTSYYPSWYQQTPGQAPRTLIYSTNTRSSGVPDRFSGSILGNKAALTITGAQADDESDYYCVLYMGSGISYVFGTGTKVTVL",,,,ELISA signal [5]: 0.002; ELISA signal [6]: 0.025; ELISA signal [7]: 0.008; ELISA signal [8]: 0.054
